According to patent US20250320312A1 (OXITOPE PHARMA B V, published 2025):

T1: Peptide 4: Biotin-AGGGGSGGGGSGGGGSAAA-Tyr-acid (N-terminal biotin; C-terminal acid)
T1 construct: control peptide without PC
T1 peptide: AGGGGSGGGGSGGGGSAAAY

T2: Peptide 8: Biotin-AEAAAKEAAAKEAAAKEAAAKAAA-Tyr-acid (N-terminal biotin; C-terminal acid)
T2 construct: control peptide without PC
T2 peptide: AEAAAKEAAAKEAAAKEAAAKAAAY


Legend:
Experiment in all cases: scFv ELISA
[1] = target: BSA (UniProt P02769)
[2] = target: Peptide 1: Biotin-…-[Tyr(PC)]-acid
[3] = target: Peptide 5: Biotin-…-[Tyr(PC)]-acid
[4] = target: T1, Peptide 4: …
In short: (§1)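 Bound scFv was read as OD450 after HRP–anti-V5 detection, TMB development and HCl stop. PPE with BSA was incubated 1 h at RT on BSA-blocked wells coated overnight at 4° C. with peptide, or on streptavidin wells loaded 1 h with biotinylated PC-peptides at 1 μg/mL.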

[5] = target: T2, Peptide 8: …
In short: as §1

Chain of BSA (P02769 25-607 limits assumed): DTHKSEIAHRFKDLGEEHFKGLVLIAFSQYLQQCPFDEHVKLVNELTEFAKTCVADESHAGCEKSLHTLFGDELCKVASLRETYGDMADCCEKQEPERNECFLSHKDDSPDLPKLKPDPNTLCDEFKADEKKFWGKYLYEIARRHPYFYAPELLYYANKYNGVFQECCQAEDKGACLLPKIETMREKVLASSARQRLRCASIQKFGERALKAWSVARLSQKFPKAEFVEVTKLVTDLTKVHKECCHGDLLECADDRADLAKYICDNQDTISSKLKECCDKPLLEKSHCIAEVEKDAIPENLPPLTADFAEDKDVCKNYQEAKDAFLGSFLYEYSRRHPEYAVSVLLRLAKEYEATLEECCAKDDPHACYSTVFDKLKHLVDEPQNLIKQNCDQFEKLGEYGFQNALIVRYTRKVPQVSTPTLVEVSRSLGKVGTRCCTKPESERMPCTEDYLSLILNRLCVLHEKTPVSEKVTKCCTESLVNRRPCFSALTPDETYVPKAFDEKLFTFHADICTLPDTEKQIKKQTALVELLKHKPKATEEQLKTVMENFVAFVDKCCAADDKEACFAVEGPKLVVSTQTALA

Row | Binder | OD450 [1] [OD450] | OD450 [2] [OD450] | OD450 [3] [OD450] | OD450 [4] [OD450] | OD450 [5] [OD450]
1 | PcOxP_DB02_F07 (scFv, V domains shown, scFv in periplasmic extract) VH: EVQLLESGGGLVQPGGSLRLSCAASGFWFSDFYMEWVRQAPGKGLEWVAASRNKANDYTTEYADSVKGRFTISRDNSKNTLYLQMNSLRAEDTAVYYCARDYYGSSYWYFDVWGQGTLVTVSS VL: DIQMTQSPSSLSASVGDRVTITCTASQSLYSSKNKVHYLAWYQQKPGKAPKLLIYGESNRYIGVPSRFSGSGSGTDFTLTISSLQPEDFATYYCAQFYSYPLTFGGGTKVEIK | 0.1 | 0.43 | 0.91 | 0.05 | 0.05
2 | PcOxP_DB03_A03 (scFv, V domains shown, scFv in periplasmic extract) VH: EVQLLESGGGLVQPGGSLRLSCAASGFTFSDFYMEWVRQAPGKGLEWVAASRNKANDYTTEYADSVKGRFTISRDNSKNTLYLQMNSLRAEDTAVYYCARDYYGSSYWYFDVWGQGTLVTVSS VL: DIQMTQSPSSLSASVGDRVTITCTASESLYSSKHKVHYLAWYQQKPGKAPKLLIYGASFRYIGVPSRFSGSGSGTDFTLTISSLQPEDFATYYCAQFYSYPLTFGGGTKVEIK | 0.09 | 0.54 | 0.81 | 0.06 | 0.06
3 | PcOxP_DB03_A08 (scFv, V domains shown, scFv in periplasmic extract) VH: EVQLLESGGGLVQPGGSLRLSCAASGFTFSDVYMEWVRQAPGKGLEWVAASRNKANDYTTEYADSVKGRFTISRDNSKNTLYLQMNSLRAEDTAVYYCARDYYGSSYWYFDVWGQGTLVTVSS VL: DIQMTQSPSSLSASVGDRVTITCTASESLYSSKHKVHYLAWYQQKPGKAPKLLIYGASNRYIGVPSRFSGSGSGTDFTLTISSLQPEDFATYYCAQFYSYPLTFGGGTKVEIK | 0.11 | 0.67 | 0.71 | 0.06 | 0.05
4 | PcOxP_DB02_H03 (scFv, V domains shown, scFv in periplasmic extract) VH: EVQLLESGGGLVQPGGSLRLSCAASGFTFSDFYMEWVRQAPGKGLEWVAASRNKANDYTTEYADSVKGRFTISRDNSKNTLYLQMNSLRAEDTAVYYCARDYYGSSYWYFDVWGQGTLVTVSS VL: DIQMTQSPSSLSASVGDRVTITCTASESISSSKHKVHYLAWYQQKPGKAPKLLIYGASNLYSGVPSRFSGSGSGTDFTLTISSLQPEDFATYYCAHFYSYPLTFGGGTKVEIK | 0.08 | 0.27 | 0.82 | 0.05 | 0.05
5 | PcOxP_DB02_G07 (scFv, V domains shown, scFv in periplasmic extract) VH: EVQLLESGGGLVQPGGSLRLSCAASGFTFSDGYMEWVRQAPGKGLEWVAASRNKANDYTTEYADSVKGRFTISRDNSKNTLYLQMNSLRAEDTAVYYCARDYYGSSYWYFDVWGQGTLVTVSS VL: DIQMTQSPSSLSASVGDRVTITCTASESLYSSKHKVHYLAWYQQKPGKAPKLLIYGASNRYGGVPSRFSGSGSGTDFTLTISSLQPEDFATYYCAQFYSYPLTFGGGTKVEIK | 0.1 | 0.52 | 0.99 | 0.05 | 0.09
6 | PcOxP_DB02_H10 (scFv, V domains shown, scFv in periplasmic extract) VH: EVQLLESGGGLVQPGGSLRLSCAASGFTFSDYYMEWVRQAPGKGLEWVAASRNKANDYTTEYADSVKGRFTISRDNSKNTLYLQMNSLRAEDTAVYYCARDYYGSSYWYFDVWGQGTLVTVSS VL: DIQMTQSPSSLSASVGDRVTITCTASESLYSSKHKVHYLAWYQQKPGKAPKLLIYGAGNRYIGVPSRFSGSGSGTDFTLTISSLQPEDFATYYCAQFYEYPLTFGGGTKVEIK | 0.08 | 1.43 | 1.39 | 0.05 | 0.05
7 | PcOxP_DB03_A09 (scFv, V domains shown, scFv in periplasmic extract) VH: EVQLLESGGGLVQPGGSLRLSCAASGFTFSDYYMEWVRQAPGKGLEWVAASRNKANDYTTEYADSVKGRFTISRDNSKNTLYLQMNSLRAEDTAVYYCARDYYGSSYWYFDVWGQGTLVTVSS VL: DIQMTQSPSSLSASVGDRVTITCTASESLYSSKHKVHYLAWYQQKPGKAPKLLIYGASNRGIGVPSRFSGSGSGTDFTLTISSLQPEDFATYYCAQFYSYPLTFGGGTKVEIK | 0.09 | 1.02 | 1.09 | 0.05 | 0.05
8 | PcOxP_DB02_G09 (scFv, V domains shown, scFv in periplasmic extract) VH: EVQLLESGGGLVQPGGSLRLSCAASGFTFSDQYMEWVRQAPGKGLEWVAASRNKANDYTTEYADSVKGRFTISRDNSKNTLYLQMNSLRAEDTAVYYCARDYYGSSYWYFDVWGQGTLVTVSS VL: DIQMTQSPSSLSASVGDRVTITCTASESLYSSKHKVHYLAWYQQKPGKAPKLLIYGASNRPIGVPSRFSGSGSGTDFTLTISSLQPEDFATYYCAQFYSYPLTFGGGTKVEIK | 0.1 | 0.35 | 0.71 | 0.05 | 0.04
9 | PcOxP_DB02_G06 (scFv, V domains shown, scFv in periplasmic extract) VH: EVQLLESGGGLVQPGGSLRLSCAASGFTFSSYYMEWVRQAPGKGLEWVAASRNQANDYTTEYADSVKGRFTISRDNSKNTLYLQMNSLRAEDTAVYYCARDYYGSPYWYFDVWGQGTLVTVSS VL: DIQMTQSPSSLSASVGDRVTITCTASESLYSSKHKVHYLAWYQQKPGKAPKLLIYGVSNRYIGVPSRFSGSGSGTDFTLTISSLQPEDFATYYCAQFYSYPLTFGGGTKVEIK | 0.08 | 0.43 | 0.87 | 0.06 | 0.05
10 | PcOxP_DB02_F12 (scFv, V domains shown, scFv in periplasmic extract) VH: EVQLLESGGGLVQPGGSLRLSCAASGFTFSDAYMEWVRQAPGKGLEWVAASRNKANDYTTEYADSVKGRFTISRDNSKNTLYLQMNSLRAEDTAVYYCARDYYGSSYWYFDVWGQGTLVTVSS VL: DIQMTQSPSSLSASVGDRVTITCEASESLYSSKHKVHYLAWYQQKPGKAPKLLIYGASNRYPGVPSRFSGSGSGTDFTLTISSLQPEDFATYYCAQFYEYPLTFGGGTKVEIK | 0.07 | 0.5 | 0.81 | 0.04 | 0.04
11 | PcOxP_DB03_A11 (scFv, V domains shown, scFv in periplasmic extract) VH: EVQLLESGGGLVQPGGSLRLSCAASGFTFSSYYMEWVRQAPGKGLEWVAASRNQANDYTTEYADSVKGRFTISRDNSKNTLYLQMNSLRAEDTAVYYCARDYYGSSYWYLDVWGQGTLVTVSS VL: DIQMTQSPSSLSASVGDRVTITCTASESLYSSKHKVHYLAWYQQKPGKAPKLLIYGADNRYIGVPSRFSGSGSGTDFTLTISSLQPEDFATYYCAQFYHYPLTFGGGTKVEIK | 0.08 | 1.12 | 1.08 | 0.05 | 0.05

Next, values leading:

Row | OD450 [1] [OD450] | OD450 [2] [OD450] | OD450 [3] [OD450] | OD450 [4] [OD450] | OD450 [5] [OD450] | Binder
12 | 0.07 | 2.02 | 1.64 | 0.05 | 0.05 | PcOxP_DB03_B02 (scFv, V domains shown, scFv in periplasmic extract) VH: EVQLLESGGGLVQPGGSLRLSCAASGFAFSDFYMEWVRQAPGKGLEWVAASRNKANDYTTEYADSVKGRFTISRDNSKNTLYLQMNSLRAEDTAVYYCARDYYGSSYWYFDVWGQGTLVTVSS VL: DIQMTQSPSSLSASVGDRVTITCTASESLYSSKHKVHYLAWYQQKPGKAPKLLIYGASNRYDGVPSRFSGSGSGTDFTLTISSLQPEDFATYYCAQFYEYPLTFGGGTKVEIK
13 | 0.09 | 1.36 | 1.66 | 0.05 | 0.05 | PcOxP_DB03_C03 (scFv, V domains shown, scFv in periplasmic extract) VH: EVQLLESGGGLVQPGGSLRLSCAASGFTFSDFYMEWVRQAPGKGLEWVAASRNKYNDYTTEYADSVKGRFTISRDNSKNTLYLQMNSLRAEDTAVYYCARDYYGSSYWYFDVWGQGTLVTVSS VL: DIQMTQSPSSLSASVGDRVTITCTASESLYSSKHKVHYLAWYQQKPGKAPKLLIYGASNRYIGVPSRFSGSGSGTDFTLTISSLQPEDFATYYCAQFYSYPLTFGGGTKVEIK
14 | 0.08 | 2.51 | 1.6 | 0.05 | 0.05 | PcOxP_DB03_D01 (scFv, V domains shown, scFv in periplasmic extract) VH: EVQLLESGGGLVQPGGSLRLSCAASGFTFSDEYMEWVRQAPGKGLEWVAASRNKANDYTTEYADSVKGRFTISRDNSKNTLYLQMNSLRAEDTAVYYCARDYYGSSYWYFDVWGQGTLVTVSS VL: DIQMTQSPSSLSASVGDRVTITCTASESLYSSKHKVHYLAWYQQKPGKAPKLLIYGASNRYIGVPSRFSGSGSGTDFTLTISSLQPEDFATYYCAQFYYYPLTFGGGTKVEIK
15 | 0.09 | 2.74 | 1.77 | 0.05 | 0.05 | PcOxP_DB03_C12 (scFv, V domains shown, scFv in periplasmic extract) VH: EVQLLESGGGLVQPGGSLRLSCAASGFTFSDYYMEWVRQAPGKGLEWVAASRNKANDYTTEYADSVKGRFTISRDNSKNTLYLQMNSLRAEDTAVYYCARDYYGSSYWYFDVWGQGTLVTVSS VL: DIQMTQSPSSLSASVGDRVTITCTASESLYSSKHKVHYLAWYQQKPGKAPKLLIYGASNRYGGVPSRFSGSGSGTDFTLTISSLQPEDFATYYCAQFYSYPLTFGGGTKVEIK
16 | 0.07 | 1.14 | 0.75 | 0.05 | 0.04 | PcOxP_DB03_C11 (scFv, V domains shown, scFv in periplasmic extract) VH: EVQLLESGGGLVQPGGSLRLSCAASGFDFSDFYMEWVRQAPGKGLEWVAASRNKANDYTTDYADSVKGRFTISRDNSKNTLYLQMNSLRAEDTAVYYCARDYFGSSYWYFDVWGQGTLVTVSS VL: DIQMTQSPSSLSASVGDRVTITCTASESLYSSKHKVHYLAWYQQKPGKAPKLLIYGASNRYQGVPSRFSGSGSGTDFTLTISSLQPEDFATYYCAQFYFYPLTFGGGTKVEIK
17 | 0.07 | 0.64 | 0.61 | 0.05 | 0.05 | PcOxP_DB03_C06 (scFv, V domains shown, scFv in periplasmic extract) VH: EVQLLESGGGLVQPGGSLRLSCAASGATFSDFYMEWVRQAPGKGLEWVAASRNGANDYTTEYADSVKGRFTISRDNSKNTLYLQMNSLRAEDTAVYYCARDYYGNSYWYFDVWGQGTLVTVSS VL: DIQMTQSPSSLSASVGDRVTITCTASESLYSSKHKVHYLAWYQQKPGKAPKLLIYGASNRQSGVPSRFSGSGSGTDFTLTISSLQPEDFATYYCAQFYVYPLTFGGGTKVEIK
